Measured values as given in patent US20140356345.

T1: 33-mer gliadin peptide
T1 sequence: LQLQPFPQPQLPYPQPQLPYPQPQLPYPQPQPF

T2: 33-mer gliadin peptide
T2 chain: T1 sequence

B1: endopep-140 (protein)
chain: MPDLPTQRRSPRRSRRPAVLARLAGLRVGALVLALAVTTLTLISMPSANAAPAKPVVPHAKASSPTAQGQHPTSRVCRTPGRANEMTCLAMVRDDVIGPKGVQANDAPAGFGPADLLNAYNLPSAGSTETVAIVDAFDNPNAEADLGVYRQQYGLPACTTANGCFKKIDQRGGTSYPPPDAGWAGEIALDIDMVSAICPTCKILLVEADDNYMDNLGTAVNQAVSQGAKFVSNSYGGSEGSDEGQADDAYFHHDGVAITASSGDSGYGASYPAASPYVTSVGGTSLAKDTSSSRGWTESTWNGAGSGCSAYETKPSFQKDTGCARRTIADVSAVADPNTGVAVYNGGWHVYGGTSVSAPIIASVYALGGAPAAGSAPNSFPYDHPADLNDVTSGSNGSCSPAYLCTAGTGYDGPTGLGTPNGIAAFRSGPHAVVTGTVTDGTAPLASAQVKAGDVTATTDGQGHYTLSVPPGTYDVSASKFGYTGKTISGVQVADGQTVTEDFALTAKARVDVSGLVRDGSGHGWPVYATVRVKDQPTAVAYTDPKTGRYTLSLPTDDTYTLQVDPLYPGYTQDSHDVTVTSADVVHDVNVAVDQTTCSAPGYSYHYAGATQPFDGTTAPAGWTVDDKVGNGQTWVFNDPGSRGNKTGGTGGFAVIDSDHYGSGNTQDSTLFSPVTDFSARTHPILSFRSDWYGYTGQAGDLDLSVDGGTTWTNLKHYTASERGPRTETMDLSAAAGKSAVQVRFHFTGKFGYYWQVDDVFLGDRTCDPTSGGLVVGQVTDANTGAGVAGATVTSVDRPAEHATSAATPDDPNLGDGLFWMFSSVTGSHKFTATAGNYDSHDVTVNVAANWATAADIALSAPRLTVTPGAISKTVGWQKAATAALTLKNTGTSPVTAKIGEQPGGSTTATAGAPLQRVKGDFASGRLQQGKASGAKAGVTPYAPPWTAIADYASPIMDNGAVALNGKIYSVAGVDGANVLNKAYAYDPGTQAWTAIAPLATGREAPQATTTGGKLYVTGGWGSTGAAVAKTEIFDPSSGAWSAGADNPKPYAGSGAAVLDGKIYVVGGCLATCGTKDVQVYDPAANSWSSGPAYPENTAWLGCAGIDGKLYCAGGSAAASTKHGYVLDPASGTWSPIADLPIDLWAMGYSAANGKLIVSGGVTNGASTLTNQGFAYDPSANSWTALPNSNNALYRGASACGFYKIGGSLGQFNAVKSGEVLPGYDQCASTADVPWLSEDKTEVTIQPGQSVKVNVTLDANVPAITQPGTYTAQLTVGAKTPYAIPPVAVTMTVNPPGTWGKITGTLTGAGCTGSPAPLTGATLQIDSWAASYTLKTDKNGQYALWLDVRNNPLTLIAAKDGWAPQTRNVKITKLTSTTADFTLKPDHTCS
B2: endopep-40 (protein)
chain: MSRRVTGTILGGLILAMVPFLSTAANAAPQAAPASVSHPFHHSCATVKPGRASCNALVRSDIAQSAATLAHQAAAPSGLSPANLQSAYKLPSSTAGSGQTVAIVDAYDAPTAEADLNVYRSQFGLGACTTANGCFKKVDQNGGTSYPRKDGGWAQEISLDLDMVSAVCPNCKIVLVEAKTNSFANLGTAENTAASLANVISNSYGGSDASDASYGSYYNHPGKAITVSSGDAGYGVEYPASSHYVTAVGGTSLRTASTSRGWSETAWSGAGSGCSAYNTALSGQSGLTGCSRRAVADVSAVADPATGVAVYDSTAYQGQSGWMVFGGTSVAAPIIGGVYGLAANAASIDNNYPYAHTSSLFDVTSGSNGTCTTTKWCTAGTGWDGPTGLGTPNGTGAF

Key:
33-mer gliadin peptide [1] = test system: T1, 33-mer gliadin peptide
33-mer gliadin peptide [2] = target: T2, 33-mer gliadin peptide

Molecule	residual intact 33-mer (1-33) by HPLC-MS, Control T2h (pepsin alone, 1 mg/ml), pH 3 (33-mer gliadin peptide [1]) [% residual]	proteolysis of gliadin, SDS-PAGE, 5 uU enzyme, pH 3, 37 C (gliadin (Sigma G3375))	33-mer disappearance by HPLC-MS, 8 uU enzyme, 2 h, pH 3 (33-mer gliadin peptide [2])	residual intact 33-mer (1-33) by HPLC-MS, T0 (33-mer gliadin peptide [2]) [% residual]	residual intact 33-mer (1-33) by HPLC-MS, T30 + pepsin (1 mg/ml), 4 uU enzyme, pH 3 (33-mer gliadin peptide [2]) [% residual]	residual intact 33-mer (1-33) by HPLC-MS, T30, 4 uU enzyme, pH 3 (33-mer gliadin peptide [2]) [% residual]	residual intact 33-mer (1-33) by HPLC-MS, T2h + pepsin (1 mg/ml), 4 uU enzyme, pH 3 (33-mer gliadin peptide [2]) [% residual]	residual intact 33-mer (1-33) by HPLC-MS, T2h, 4 uU enzyme, pH 3 (33-mer gliadin peptide [2]) [% residual]	33-mer disappearance by HPLC-MS, 9 uU enzyme, 2 h, pH 3 (33-mer gliadin peptide [2])	residual intact 33-mer (1-33) by HPLC-MS, T30 + pepsin (1 mg/ml), 2 uU enzyme, pH 3 (33-mer gliadin peptide [2]) [% residual]	residual intact 33-mer (1-33) by HPLC-MS, T30, 2 uU enzyme, pH 3 (33-mer gliadin peptide [2]) [% residual]	residual intact 33-mer (1-33) by HPLC-MS, T2h + pepsin (1 mg/ml), 2 uU enzyme, pH 3 (33-mer gliadin peptide [2]) [% residual]	residual intact 33-mer (1-33) by HPLC-MS, T2h, 2 uU enzyme, pH 3 (33-mer gliadin peptide [2]) [% residual]
pepsin	95	–	–	–	–	–	–	–	–	–	–	–	–
B1	–	cleaved ... into small peptides to almost complete digestion in 2 hours	complete 33-mer disappearance after 2 h at pH 3 (not shown)	100	70	50	45	20	–	–	–	–	–
B2	–	cleaved ... into small peptides to almost complete digestion in 2 hours	–	100	–	–	–	–	complete 33-mer disappearance after 2 h at pH 3 (not shown)	70	50	30	20
